Laboratory results as given in the RNAGym collection of RNA variant scans (doi:10.1073/pnas.2313332121).

B1: TPR t1 (parent)
chain: GACCAAUCUGCCCUCAGAGCUCGAGAACAUCUUCGGAUGCAGAGGAGGCAGGCUUCGGUGGCGCGAUAGCGCCAACGUCCUCAACCUCCAAUGCAUCCCACCACAUGAUGAUGCCUGAAGAGCCUUGGUUUUUUG

Variants of: B1
Test: polymerase ribozyme fitness, log enrichment relative to wild type (log ratio); higher = more active; in vitro selection for triplet polymerase activity
Summary of the method: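 Frozen incubation at −7 °C formed the core of a single, triplicate in vitro selection round applied to PCR-built, transcribed mutant libraries of each subunit of a heterodimeric triplet polymerase ribozyme. Extended constructs were gel-excised, captured with streptavidin beads and amplified by RT-PCR, and input and output libraries were Illumina-sequenced with a filter of ≥10 input reads and ≥1 read per output. Fitness is the logarithm of genotype enrichment relative to wild-type enrichment, with inverse-variance-weighted replicate averaging, and the logarithm is base 2.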

Variant | polymerase ribozyme fitness (log ratio)
A50C G61U C79G | -2.93
A50G G60C C94U | -4.35
A50G C73A C82U | -0.0319
A50U C62U U133G | -1.1
A50U C115U | -2.37
A50G C56A | -0.266
A50G C104A | -1.49
A50G C104U | -0.208
A50G C72G | -0.204
A50G C62U U87A | -0.164
A50G C123U | 1.02
A50U C64U A105C A118U | -4.51
A50U C88U A118U | -0.957
A50C U87G C98U | -0.87
A50G G69A A90C | -6.86
A50G C53U U129C U130G | -0.774
A50U U87G | -1.44
A50U C72G C79U U112A | -3.66
A50U U81C | -1.83
A50U U81A | -0.662
A50U G52A | -2.66

Variant | polymerase ribozyme fitness (log ratio)
A50U G52U | -2.39
A50U G61C C79G U106C C115U C124A | -5.24
A50U G57U | -1.1
A50U G58A G63U G113C U129G | -7.01
A50U C62U A83U U133A | -1.52
A50U G122A | -1.23
A50G G57A C72U U96C C114U | -4.36
A50G G57C G61U C88G | -3.3
A50G C53A C70G | -2.47
A50U A83U U133A | -0.994
A50G G63A U112A G122A | -1.39
A50U G110A | -2.67
A50U G110U | -4.06
A50U C56U G71C C123A | -6.51
A50U G61U C94A G110U | -4.5
A50C G69U U125A | 0.0264
A50U A74C A84G U112A | -4.89
A50U C70U | -1.67
A50U C98U G107A C115A | -5.98
A50G C89G | -1.08
A50U G63C C86G U87A | -3.52

Variant | polymerase ribozyme fitness (log ratio)
A50C G71U U87A | -1.95
A50U G57C A119U | -1.85
A50C G110U | -1.99
A50U U59A G60C C80G C88U | -2.26
A50U C56G | -1.76
A50G C62A U67A A84G C97U G110C A118G | -8.94
A50U C56U C73G C88U | -3.49
A50G G69U | 0.675
A50U G69U C80G C98U G113A | -3.31
A50U C56U C73U A83C | -1.69
A50U C102A | -2.99
A50U G69A C101A U130G | -6.9
A50G C53A C73U | 0.0786
A50G U78C | 0.0914
A50U C62G U112G | -5.81
A50G C62U C82A A121U | 1.97
A50U C53A U54A G93U A105U | -3.45
A50U C86U G93U U112C | -1.3
A50G C53G G60U C72U C101A | -3.8
A50U C73U U87A | -0.904
A50U C88U | -1.71

Variant | polymerase ribozyme fitness (log ratio)
A50U C62U U109A A111C G120U A121G | -7.17
A50G C70U | -0.709
A50G C70G | -4.35
A50U G63U C89U | -3.86
A50C G63U U81A U129A | -2.04
A50C U55G G58C U81A C124A | 1.51
A50G C53G G61A C64U U116A G117A | -4.58
A50U C73U G117C C123A | -5.84
A50U C115G A121C G128U | -4.2
A50U G93C | -1.95
A50U U54A G63C U112A | -2.51
A50G C70U C72G | -3.42
A50U G63A | -1.47
A50U G60A | -0.0812
A50U G60C | -1.06
A50U G52C G58C C73U C88U | -4.53
A50G U130C | 0.163
A50G U130G | -0.32
A50U C115A U133C | 0.332
A50C G71U | 0.242
A50U C62G C86G A105U A108U C124G | -7.62
